Assay results published in the supplement of paper PMC11780869.

System: Bacillus subtilis
Experiment: cleaved RNA product abundance (RNA/gDNA barcode ratio) relative to median wild-type variant (ratio to wild type); higher = more accumulation of the downstream cleavage product
Conditions: experiment (reporter, strain, medium): exp 2b: truncated aprE reporter, strain BJT200; cleavage site: cggR-gapA (positions -7 to +36 mutated)
In short: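 Truncated aprE or tetM reporter mRNAs with barcoded RNase Y cleavage-site windows, mutagenized from oligos at a 9% error rate, sat in the B. subtilis chromosome. Cells grew in LB at 37°C from OD600 0.0003 to 0.3. Gel-selected cleaved RNA was reverse transcribed and its barcodes sequenced with those from genomic DNA, collapsing by UMI. Cleaved product abundance equals the RNA:gDNA barcode ratio per construct over the median construct with the unmutated site.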

Sequence	cleaved RNA product abundance
ACAGACGAAGGAGCCGCGAAGAAGTTATTAAGGTATGAATAATCCCTCAATATAAATATCTCTCACTTATTTAAA	0.117
ACAGACGAAGGAGCCGCGAAGAAGTTATTTAGGGATGAATAATCCCTCAATATAAATATCTCTCACTTATTTAAA	0.572
ACAGACGAAGGAGCCGCGAATAAGTTATTAAGGGATGAATAATCCCTCAATATAAATATCTCTCACTTATTTAAA	1.19
ACAGACGAAGGAGCCGCTAACAAGTTATTAAAGGATGAATAATCCCTCAATATAAATATCTCTCACTTATTTAAA	0.111
ACAGACGAAGGAGCCGCTAAGAAATTATTAAGGGATGAATAATCCCTCAATATAAATATCTCTCACTTATTTAAA	0.556
ACAGACGAAGGAGCCGCTAAGAAGATATTAAGGGATGAATAATCCCTCAATATAAATATCTCTCACTTATTTAAA	0.625
ACAGACGAAGGAGCCGCTAAGAAGTTACTAAGGGATGAATAATCCCTCAATATAAATATCTCTCACTTATTTAAA	0.186
ACAGACGAAGGAGCCGCTAAGAAGTTATTAAGAGATGAATAATCCCTCAATATAAATATCTCTCACTTATTTAAA	0.126
ACAGACGAAGGAGCCGCTAAGAAGTTATTAAGGCATGAATAATCCCTCAATATAAATATCTCTCACTTATTTAAA	0.115
ACAGACGAAGGAGCCGCTAAGAAGTTATTAAGGGATGAATAAACCCTCAATATAAATATCTCTCACTTATTTAAA	0.537
ACAGACGAAGGAGCCGCTAAGAAGTTATTAAGGGATGAATAATCCCTAAATATAAATATCTCTCACTTATTTAAA	0.745
ACAGACGAAGGAGCCGCTAAGAAGTTATTAAGGGATGAATAATCCCTCAAGATAAATATCTCTCACTTATTTAAA	0.249
ACAGACGAAGGAGCCGCTAAGAAGTTATTAAGGGATGAATAATCCCTCAATATAAATATCTCTCACTTATTTAAA	1.04
ACAGACGAAGGAGCCGCTAAGAAGTTATTAAGGGATGAATAATCCTTCAATATAAATATCTCTCACTTATTTAAA	0.434
ACAGACGAAGGAGCCGCTAAGAAGTTATTAAGGGATGAATAATTCCTCAATATAAATATCTCTCACTTATTTAAA	0.713
ACAGACGAAGGAGCCGCTAAGAAGTTATTAAGGGATGCATAATCCCTCAATATAAATATCTCTCACTTATTTAAA	0.968
ACAGACGAAGGAGCCGCTAAGAAGTTATTAAGGTATGAATAATCCCTCAATATAAATATCTCTCACTTATTTAAA	0.114

Same assay, conditions: experiment (reporter, strain, medium): exp 4a: truncated aprE reporter, strain BJT201 with 2% xylose (RNase J1 expressed); cleavage site: cggR-gapA (positions -7 to +36 mutated)

Sequence	cleaved RNA product abundance
ACAGACGAAGGAGCCGCGAAGAAGTTATTAAGGGATGAATAATCTCTCAATATAAATATCTCTCACTTATTTAAA	0.671
ACAGACGAAGGAGCCGCGAAGAAGTTATTAAGGGATGAATAATTCCTCAATATAAATATCTCTCACTTATTTAAA	0.684
ACAGACGAAGGAGCCGCGAAGAAGTTATTAAGGGATGAATACTCCCTCAATATAAATATCTCTCACTTATTTAAA	0.528
ACAGACGAAGGAGCCGCGAAGAAGTTATTAAGGGATGAATTATCCCTCAATATAAATATCTCTCACTTATTTAAA	0.548
ACAGACGAAGGAGCCGCGAAGAAGTTATTAAGGGATTAATAATCCCTCAATATAAATATCTCTCACTTATTTAAA	1.19
ACAGACGAAGGAGCCGCGAAGAAGTTATTAAGGTATGAATAATCCCTCAATATAAATATCTCTCACTTATTTAAA	0.143
ACAGACGAAGGAGCCGCGAAGAAGTTATTAATGGATGAATAATCCCTCAATATAAATATCTCTCACTTATTTAAA	0.214
ACAGACGAAGGAGCCGCGAAGAAGTTATTATGGGATGAATAATCCCTCAATATAAATATCTCTCACTTATTTAAA	0.357
ACAGACGAAGGAGCCGCGAAGAAGTTTTTAAGGGATGAATAATCCCTCAATATAAATATCTCTCACTTATTTAAA	0.418
ACAGACGAAGGAGCCGCGAAGAATTTATTAAGGGATGAATAATCCCTCAATATAAATATCTCTCACTTATTTAAA	0.561
ACAGACGAAGGAGCCGCGAAGTAGTTATTAAGGGATGAATAATCCCTCAATATAAATATCTCTCACTTATTTAAA	1.29
ACAGACGAAGGAGCCGCGAATAAGTTATTAAGGGATGAATAATCCCTCAATATAAATATCTCTCACTTATTTAAA	1.47
ACAGACGAAGGAGCCGCTAAAAAGTTATTAAGGGATGAATAATCCCTCAATATAAATATCTCTCACTTATTTAAA	1.1
ACAGACGAAGGAGCCGCTAAGAAGCTATTAAGGGATGAATAATCCCTCAATATAAATATCTCTCACTTATTTAAA	0.52
ACAGACGAAGGAGCCGCTAAGAAGTAATTAAGGGATGAATAATCCCTCAATATAAATATCTCTCACTTATTTAAA	0.309
ACAGACGAAGGAGCCGCTAAGAAGTGATTAAGGGATGAATAATCCCTCAATATAAATATCTCTCACTTATTTAAA	0.419
ACAGACGAAGGAGCCGCTAAGAAGTTATTAAAGGATGAATAATCCCTCAATATAAATATCTCTCACTTATTTAAA	0.157
ACAGACGAAGGAGCCGCTAAGAAGTTATTAAGAGATGAATAATCCCTCAATATAAATATCTCTCACTTATTTAAA	0.135
ACAGACGAAGGAGCCGCTAAGAAGTTATTAAGGAATGAATAATCCCTCAATATAAATATCTCTCACTTATTTAAA	0.0845
ACAGACGAAGGAGCCGCTAAGAAGTTATTAAGGGAAGAATAATCCCTCAATATAAATATCTCTCACTTATTTAAA	0.638
